Measured values as given in patent US20220389118A1 (Chugai, published 2022).
Residue numbers refer to the chain shown, from its start. Names and notes keep the numbering of the source.

T1: human FcγRIIa type R extracellular domain with C-terminal His tag (human, UniProt P12318 34-217)
T1 construct: extracellular domain; also called FcγRIIaR; FcgRIIaR
T1 sequence (looked up): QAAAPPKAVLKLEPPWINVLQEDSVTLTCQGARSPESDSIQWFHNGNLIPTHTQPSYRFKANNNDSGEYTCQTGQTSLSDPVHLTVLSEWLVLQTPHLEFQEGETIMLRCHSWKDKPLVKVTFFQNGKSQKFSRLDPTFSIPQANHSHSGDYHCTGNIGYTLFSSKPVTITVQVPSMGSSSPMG

T2: human FcγRIIb extracellular domain with C-terminal His tag (human, UniProt P31994 43-217)
T2 construct: extracellular domain; also called FcgRIIb
T2 sequence (looked up): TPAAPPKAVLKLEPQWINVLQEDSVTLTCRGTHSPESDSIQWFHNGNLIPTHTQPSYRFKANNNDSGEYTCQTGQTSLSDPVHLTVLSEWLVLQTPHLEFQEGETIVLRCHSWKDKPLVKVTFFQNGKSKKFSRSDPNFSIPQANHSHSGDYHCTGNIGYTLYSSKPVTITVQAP

T3: human FcγRIIa type R (allotype R131) extracellular domain with C-terminal His tag (human, UniProt P12318 34-217)
T3 construct: extracellular domain; also called FcγRIIaR; FcγRIIa R type; not shown: His tag at the C terminus
T3 sequence (looked up): T1 sequence (looked up)

T4: human FcγRIIb extracellular domain with C-terminal His tag (human, UniProt P31994 43-217)
T4 construct: extracellular domain; not shown: His tag at the C terminus
T4 sequence (looked up): T2 sequence (looked up)

T5: human FcγRIIa type R extracellular domain with C-terminal His tag (human, UniProt P12318 34-217)
T5 construct: extracellular domain; also called FcγRIIaR; FcγRIIa R
T5 sequence (looked up): T1 sequence (looked up)

B1: IL6R-BP911/IL6R-L (antibody, human IgG1, kappa)
heavy: QVQLQESGPGLVKPSETLSLTCAVSGHSISHDHAWSWVRQPPGEGLEWIGFISYSGITNYNPSLQGRVTISRDNSKNTLYLQMNSLRAEDTAVYYCARSLARTTAMDYWGEGTLVTVSSASTKGPSVFPLAPSSKSTSGGTAALGCLVKDYFPEPVTVSWNSGALTSGVHTFPAVLQSSGLYSLSSVVTVPSSSLGTQTYICNVNHKPSNTKVDKKVEPKSCDKTHTCPPCPAPELLGGDSVFLFPPKPKDTLMISRTPEVTCVVVDVSHEDPEVKFNWYVDGVEVHNAKTKPREEQYNSTYRVVSVLTVLHQDWLNGKEYKCKVSNKALPKPIEKTISKAKGQPREPQVYTLPPSRDELTKNQVSLTCLVKGFYPSDIAVEWESNGQPENNYKTTPPVLDSDGSFFLYSKLTVDKSRWQQGNVFSCSVMHEALHNHYTQESLSLSP
light: not shown
notes: IgG1 type
B2: IL6R-BP126/IL6R-L (antibody, human IgG1, kappa)
heavy: B1 heavy with K328L, K332A
light: not shown
notes: IgG1 type
B3: IL6R-BP107/IL6R-L (antibody, human IgG1, kappa)
heavy: B1 heavy with H270E, K332A
light: not shown
notes: IgG1 type
B4: IL6R-BP118/IL6R-L (antibody, human IgG1, kappa)
heavy: B1 heavy with K328S, K332A
light: not shown
notes: IgG1 type
B5: IL6R-BP117/IL6R-L (antibody, human IgG1, kappa)
heavy: B1 heavy with K328D, K332A
light: not shown
notes: IgG1 type
B6: IL6R-BP116/IL6R-L (antibody, human IgG1, kappa)
heavy: B1 heavy with K328T, K332A
light: not shown
notes: IgG1 type
B7: IL6R-BP120/IL6R-L (antibody, human IgG1, kappa)
heavy: B1 heavy with K328E, K332A
light: not shown
notes: IgG1 type
B8: IL6R-BP187/IL6R-L (antibody, human IgG1, kappa)
heavy: B1 heavy with L236Y, P273G, K328A
light: not shown
notes: copies: 2 + 2
B9: IL6R-BP189/IL6R-L (antibody, human IgG1, kappa)
heavy: B1 heavy with G239D, H270D, P273G, K328A
light: not shown
notes: copies: 2 + 2
B10: IL6R-BP192/IL6R-L (antibody, human IgG1, kappa)
heavy: B1 heavy with E235D, H270D, P273G, Y298D
light: not shown
notes: copies: 2 + 2
B11: IL6R-BP203/IL6R-L (antibody, human IgG1, kappa)
heavy: B1 heavy with G239D, P273G, K332R
light: not shown
notes: copies: 2 + 2
B12: IL6R-BP191/IL6R-L (antibody, human IgG1, kappa)
heavy: B1 heavy with E235D, H270D, P273G, K328A
light: not shown
notes: copies: 2 + 2
B13: Fv4-F1382 (antibody, human IgG1, kappa)
heavy: B1 heavy with D240P, K332A, S428K, M430L, N436S, E441K
light: DIQMTQSPSSLSASVGDSVTITCQASTDISSHLNWYQQKPGKAPELLIYYGSHLLSGVPSRFSGSGSGTDFTFTISSLEAEDAATYYCGQGNRLPYTFGQGTKVEIERTVAAPSVFIFPPSDEQLKSGTASVVCLLNNFYPREAKVQWKVDNALQSGNSQESVTEQDSKDSTYSLSSTLTLSKADYEKHKVYACEVTHQGLSSPVTKSFNRGEC
notes: Variant of Fv4-LS; copies: 2 + 2
B14: Fv4-F1384 (antibody, human IgG1, kappa)
heavy: B1 heavy with D240P, K332A, S428A, M430L, N436S, E441K
light: B13 light
notes: as for B13
B15: Fv4-F1386 (antibody, human IgG1, kappa)
heavy: B1 heavy with D240P, K332A, S428Y, M430L, N436S, E441K
light: B13 light
notes: as for B13
B16: Fv4-F1392 (antibody, human IgG1, kappa)
heavy: B1 heavy with D240P, K332A, M430L, N436S, Y438K, E441K
light: B13 light
notes: as for B13
B17: Fv4-F1383 (antibody, human IgG1, kappa)
heavy: B1 heavy with D240P, K332A, S428R, M430L, N436S, E441K
light: B13 light
notes: as for B13
B18: Fv4-F1390 (antibody, human IgG1, kappa)
heavy: B1 heavy with D240P, K332A, M430L, N436S, Y438H, E441K
light: B13 light
notes: as for B13
B19: Fv4-F1389 (antibody, human IgG1, kappa)
heavy: B1 heavy with D240P, K332A, M430L, N436S, Y438T, E441K
light: B13 light
notes: as for B13
B20: Fv4-F1380 (antibody, human IgG1, kappa)
heavy: B1 heavy with D240P, K332A, S428D, M430L, N436S, E441K
light: B13 light
notes: as for B13
B21: Fv4-F1388 (antibody, human IgG1, kappa)
heavy: B1 heavy with D240P, K332A, M430L, N436S, Y438F, E441K
light: B13 light
notes: as for B13
B22: Fv4-F1381 (antibody, human IgG1, kappa)
heavy: B1 heavy with D240P, K332A, S428E, M430L, N436S, E441K
light: B13 light
notes: as for B13
B23: Fv4-F1385 (antibody, human IgG1, kappa)
heavy: B1 heavy with D240P, K332A, S428Q, M430L, N436S, E441K
light: B13 light
notes: as for B13
B24: Fv4-F1391 (antibody, human IgG1, kappa)
heavy: B1 heavy with D240P, K332A, M430L, N436S, Y438N, E441K
light: B13 light
notes: as for B13
B25: IL6R-BP542/IL6R-L (antibody, human IgG1, kappa)
heavy: B1 heavy with E235D, G239D, H270D, P273G, Y298F, K332R
light: not shown
notes: Y296F introduced into IL6R-BP230 (takes the place of Y296D); copies: 2 + 2
B26: IL6R-PD094/IL6R-L (antibody, human IgG1, kappa)
heavy: B1 heavy with G239W, M254Y, K332A, N436Y, E441K
light: not shown
notes: also called P238D/G237W; G237W/P238D; copies: 2 + 2
B27: IL6R-PD095/IL6R-L (antibody, human IgG1, kappa)
heavy: B1 heavy with G239Y, M254Y, K332A, N436Y, E441K
light: not shown
notes: also called P238D/G237Y; G237Y/P238D; copies: 2 + 2
B28: IL6R-PD081/IL6R-L (antibody, human IgG1, kappa)
heavy: B1 heavy with G239E, M254Y, K332A, N436Y, E441K
light: not shown
notes: also called P238D/G237E; G237E/P238D; copies: 2 + 2
B29: IL6R-PD043/IL6R-L (antibody, human IgG1, kappa)
heavy: B1 heavy with L236Y, M254Y, K332A, N436Y, E441K
light: not shown
notes: also called P238D/L234Y; L234Y/P238D; copies: 2 + 2
B30: IL6R-PD082/IL6R-L (antibody, human IgG1, kappa)
heavy: B1 heavy with G239F, M254Y, K332A, N436Y, E441K
light: not shown
notes: also called P238D/G237F; G237F/P238D; copies: 2 + 2
B31: IL6R-PD097/IL6R-L (antibody, human IgG1, kappa)
heavy: B1 heavy with S241D, M254Y, K332A, N436Y, E441K
light: not shown
notes: also called P238D/S239D; copies: 2 + 2
B32: IL6R-PD086/IL6R-L (antibody, human IgG1, kappa)
heavy: B1 heavy with G239L, M254Y, K332A, N436Y, E441K
light: not shown
notes: also called P238D/G237L; G237L/P238D; copies: 2 + 2

target: T1, human FcγRIIa type R extracellular …; test: SPR (Biacore), antibody captured, FcγR as analyte

Binder | Kd [nM]
B1 | 16000
B2 | 11000
B3 | 12000
B4 | 15000
B5 | 9200
B6 | 15000
B7 | 9600

target: T2, human FcγRIIb extracellular domain with …; test: SPR (Biacore), antibody captured, FcγR as analyte

Binder | KD(IIb) of parent polypeptide/KD(IIb) of altered polypeptide [fold vs IL6R-B3/IL6R-L] | Kd [nM]
B1 | 3.5 | 
B2 | 2.2 | 
B3 | 3.3 | 
B4 | 2.7 | 
B5 | 3.9 | 800
B6 | 2.8 | 
B7 | 3 | 1000

target: T6, human FcγRIa extracellular domain with C-terminal His tag (human, UniProt P12314 16-292); test: SPR (Biacore), antibody captured, FcγR analyte
T6 construct: not shown: His tag at the C terminus
T6 sequence (P12314 16-292): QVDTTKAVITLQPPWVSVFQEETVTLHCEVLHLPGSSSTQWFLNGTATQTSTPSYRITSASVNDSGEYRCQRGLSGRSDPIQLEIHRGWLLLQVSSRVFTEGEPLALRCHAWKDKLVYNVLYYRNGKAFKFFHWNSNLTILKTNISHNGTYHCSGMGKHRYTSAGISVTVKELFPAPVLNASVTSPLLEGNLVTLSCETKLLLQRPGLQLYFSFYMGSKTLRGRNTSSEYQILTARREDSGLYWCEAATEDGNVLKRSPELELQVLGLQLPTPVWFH

Binder | Kd [nM]
B8 | 25
B9 | 42
B10 | 6.6
B11 | 180
B12 | 4

target: T3, human FcγRIIa type R (allotype R131) …; test: SPR (Biacore), antibody captured, FcγR analyte

Binder | Kd [nM]
B8 | 2800
B10 | 2600
B11 | 990
B12 | 3000

target: T7, human FcγRIIIa type V (allotype V158) extracellular domain with C-terminal His tag (human, UniProt P08637 17-208); test: SPR (Biacore), antibody captured, FcγR analyte
T7 construct: extracellular domain; also called FcγRIIIaV; FcγRIIIa V type; not shown: His tag at the C terminus
T7 sequence (P08637 17-208 F176V): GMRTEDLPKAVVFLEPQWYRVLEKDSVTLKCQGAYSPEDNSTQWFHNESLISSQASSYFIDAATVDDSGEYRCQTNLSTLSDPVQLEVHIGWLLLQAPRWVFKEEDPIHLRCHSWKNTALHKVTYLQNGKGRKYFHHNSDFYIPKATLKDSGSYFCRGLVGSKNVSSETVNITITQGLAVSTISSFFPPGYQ

Binder | Kd [nM]
B8 | 56000
B11 | 72000

target: T8, human FcRn (human, UniProt P55899 24-297; P61769 21-119); test: binding to FcRn at pH 6.0; method not stated
T8 construct: the construct is not described
T8 sequence (P55899 24-297 limits assumed, chain 1 of 2): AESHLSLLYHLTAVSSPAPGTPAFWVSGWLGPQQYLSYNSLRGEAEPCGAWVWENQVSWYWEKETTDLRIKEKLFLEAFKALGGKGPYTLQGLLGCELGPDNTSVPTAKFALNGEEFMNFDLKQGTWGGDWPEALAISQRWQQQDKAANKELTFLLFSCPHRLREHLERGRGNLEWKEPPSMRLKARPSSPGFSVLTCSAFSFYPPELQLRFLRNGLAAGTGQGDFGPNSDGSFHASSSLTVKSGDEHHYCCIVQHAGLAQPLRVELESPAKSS
T8 sequence (P61769 21-119 limits assumed, chain 2 of 2): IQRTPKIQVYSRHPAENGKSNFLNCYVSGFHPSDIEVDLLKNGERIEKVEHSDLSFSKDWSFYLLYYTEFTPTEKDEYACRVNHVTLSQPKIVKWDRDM

Binder | Kd [nM]
B13 | 130
B14 | 86
B15 | 160
B16 | 270
B17 | 160
B18 | 400
B19 | 68
B20 | 73
B21 | 80
B22 | 86
B23 | 77
B24 | 420

target: T4, human FcγRIIb extracellular domain with …; test: SPR (Biacore), antibody captured, FcγR analyte

Binder | Kd [nM]
B25 | 20

target: T5, human FcγRIIa type R extracellular …; test: SPR, Ref. Ex. 25

Binder | Kd [nM]
B26 | 7200
B27 | 7900
B28 | 38000
B29 | 26000
B30 | 14000

target: T9, human FcγRIIIa type V extracellular domain with C-terminal His tag (human, UniProt P08637 17-208); test: SPR, Ref. Ex. 25
T9 construct: extracellular domain; also called FcγRIIIaV; FcγRIIIa V type
T9 sequence (P08637 17-208 F176V): as the sequence (P08637 17-208 F176V) above

Binder | Kd [nM]
B31 | 17000
B26 | 38000
B27 | 42000
B28 | 41000
B29 | 45000
B32 | 41000
B30 | 43000
